These results are taken from US20250154199A1.

The test has as its target Slack KNa channel, wildtype (Slack-B subunit), recombinantly expressed in CHO cells. Nature of the test: cell-based or functional assay.

Regarding “Magi-1 (Membrane-Associated Guanylate Kinase 1), recombinantly expressed in CHO cells”, the membrane currents of Slack-B on co-expression with Magi-1 came to 2 fold.
